Measured values reported in US20130203116, “EXPRESSION AND PURIFICATION OF FUSION PROTEIN WITH MULTIPLE MBP TAGS” (The Regents of the University of California 1111 Franklin …, published 2013).

Assays:
[1] = target: T1, BRCA2 (2XMBP-BRCA2, full length) (Homo sapiens, UniProt P51587 P51587:1-3418); assay: EMSA; strongly preferred over dsDNA; 1 mM MgCl2, 2 mM CaCl2, 2 mM ATP, 37 C; settings: tags: N-terminal 2xMBP with PreScission site, expressed in human 293T cells, amylose + HiTrap Q
[2] = target: T1, BRCA2 (2XMBP-BRCA2, full length); assay: EMSA; strongly preferred over dsDNA; slight preference over ssDNA at high salt (0.5-1 M NaCl); 1 mM MgCl2, 2 mM CaCl2, 2 mM ATP, 37 C; settings: tags: N-terminal 2xMBP with PreScission site; expressed in human 293T cells, amylose + HiTrap Q; label: 5'-32P on 167-mer (EMSA); 42 bp duplex with 125 nt 3' ssDNA overhang

T1 sequence (P51587 whole entry, one chain of several): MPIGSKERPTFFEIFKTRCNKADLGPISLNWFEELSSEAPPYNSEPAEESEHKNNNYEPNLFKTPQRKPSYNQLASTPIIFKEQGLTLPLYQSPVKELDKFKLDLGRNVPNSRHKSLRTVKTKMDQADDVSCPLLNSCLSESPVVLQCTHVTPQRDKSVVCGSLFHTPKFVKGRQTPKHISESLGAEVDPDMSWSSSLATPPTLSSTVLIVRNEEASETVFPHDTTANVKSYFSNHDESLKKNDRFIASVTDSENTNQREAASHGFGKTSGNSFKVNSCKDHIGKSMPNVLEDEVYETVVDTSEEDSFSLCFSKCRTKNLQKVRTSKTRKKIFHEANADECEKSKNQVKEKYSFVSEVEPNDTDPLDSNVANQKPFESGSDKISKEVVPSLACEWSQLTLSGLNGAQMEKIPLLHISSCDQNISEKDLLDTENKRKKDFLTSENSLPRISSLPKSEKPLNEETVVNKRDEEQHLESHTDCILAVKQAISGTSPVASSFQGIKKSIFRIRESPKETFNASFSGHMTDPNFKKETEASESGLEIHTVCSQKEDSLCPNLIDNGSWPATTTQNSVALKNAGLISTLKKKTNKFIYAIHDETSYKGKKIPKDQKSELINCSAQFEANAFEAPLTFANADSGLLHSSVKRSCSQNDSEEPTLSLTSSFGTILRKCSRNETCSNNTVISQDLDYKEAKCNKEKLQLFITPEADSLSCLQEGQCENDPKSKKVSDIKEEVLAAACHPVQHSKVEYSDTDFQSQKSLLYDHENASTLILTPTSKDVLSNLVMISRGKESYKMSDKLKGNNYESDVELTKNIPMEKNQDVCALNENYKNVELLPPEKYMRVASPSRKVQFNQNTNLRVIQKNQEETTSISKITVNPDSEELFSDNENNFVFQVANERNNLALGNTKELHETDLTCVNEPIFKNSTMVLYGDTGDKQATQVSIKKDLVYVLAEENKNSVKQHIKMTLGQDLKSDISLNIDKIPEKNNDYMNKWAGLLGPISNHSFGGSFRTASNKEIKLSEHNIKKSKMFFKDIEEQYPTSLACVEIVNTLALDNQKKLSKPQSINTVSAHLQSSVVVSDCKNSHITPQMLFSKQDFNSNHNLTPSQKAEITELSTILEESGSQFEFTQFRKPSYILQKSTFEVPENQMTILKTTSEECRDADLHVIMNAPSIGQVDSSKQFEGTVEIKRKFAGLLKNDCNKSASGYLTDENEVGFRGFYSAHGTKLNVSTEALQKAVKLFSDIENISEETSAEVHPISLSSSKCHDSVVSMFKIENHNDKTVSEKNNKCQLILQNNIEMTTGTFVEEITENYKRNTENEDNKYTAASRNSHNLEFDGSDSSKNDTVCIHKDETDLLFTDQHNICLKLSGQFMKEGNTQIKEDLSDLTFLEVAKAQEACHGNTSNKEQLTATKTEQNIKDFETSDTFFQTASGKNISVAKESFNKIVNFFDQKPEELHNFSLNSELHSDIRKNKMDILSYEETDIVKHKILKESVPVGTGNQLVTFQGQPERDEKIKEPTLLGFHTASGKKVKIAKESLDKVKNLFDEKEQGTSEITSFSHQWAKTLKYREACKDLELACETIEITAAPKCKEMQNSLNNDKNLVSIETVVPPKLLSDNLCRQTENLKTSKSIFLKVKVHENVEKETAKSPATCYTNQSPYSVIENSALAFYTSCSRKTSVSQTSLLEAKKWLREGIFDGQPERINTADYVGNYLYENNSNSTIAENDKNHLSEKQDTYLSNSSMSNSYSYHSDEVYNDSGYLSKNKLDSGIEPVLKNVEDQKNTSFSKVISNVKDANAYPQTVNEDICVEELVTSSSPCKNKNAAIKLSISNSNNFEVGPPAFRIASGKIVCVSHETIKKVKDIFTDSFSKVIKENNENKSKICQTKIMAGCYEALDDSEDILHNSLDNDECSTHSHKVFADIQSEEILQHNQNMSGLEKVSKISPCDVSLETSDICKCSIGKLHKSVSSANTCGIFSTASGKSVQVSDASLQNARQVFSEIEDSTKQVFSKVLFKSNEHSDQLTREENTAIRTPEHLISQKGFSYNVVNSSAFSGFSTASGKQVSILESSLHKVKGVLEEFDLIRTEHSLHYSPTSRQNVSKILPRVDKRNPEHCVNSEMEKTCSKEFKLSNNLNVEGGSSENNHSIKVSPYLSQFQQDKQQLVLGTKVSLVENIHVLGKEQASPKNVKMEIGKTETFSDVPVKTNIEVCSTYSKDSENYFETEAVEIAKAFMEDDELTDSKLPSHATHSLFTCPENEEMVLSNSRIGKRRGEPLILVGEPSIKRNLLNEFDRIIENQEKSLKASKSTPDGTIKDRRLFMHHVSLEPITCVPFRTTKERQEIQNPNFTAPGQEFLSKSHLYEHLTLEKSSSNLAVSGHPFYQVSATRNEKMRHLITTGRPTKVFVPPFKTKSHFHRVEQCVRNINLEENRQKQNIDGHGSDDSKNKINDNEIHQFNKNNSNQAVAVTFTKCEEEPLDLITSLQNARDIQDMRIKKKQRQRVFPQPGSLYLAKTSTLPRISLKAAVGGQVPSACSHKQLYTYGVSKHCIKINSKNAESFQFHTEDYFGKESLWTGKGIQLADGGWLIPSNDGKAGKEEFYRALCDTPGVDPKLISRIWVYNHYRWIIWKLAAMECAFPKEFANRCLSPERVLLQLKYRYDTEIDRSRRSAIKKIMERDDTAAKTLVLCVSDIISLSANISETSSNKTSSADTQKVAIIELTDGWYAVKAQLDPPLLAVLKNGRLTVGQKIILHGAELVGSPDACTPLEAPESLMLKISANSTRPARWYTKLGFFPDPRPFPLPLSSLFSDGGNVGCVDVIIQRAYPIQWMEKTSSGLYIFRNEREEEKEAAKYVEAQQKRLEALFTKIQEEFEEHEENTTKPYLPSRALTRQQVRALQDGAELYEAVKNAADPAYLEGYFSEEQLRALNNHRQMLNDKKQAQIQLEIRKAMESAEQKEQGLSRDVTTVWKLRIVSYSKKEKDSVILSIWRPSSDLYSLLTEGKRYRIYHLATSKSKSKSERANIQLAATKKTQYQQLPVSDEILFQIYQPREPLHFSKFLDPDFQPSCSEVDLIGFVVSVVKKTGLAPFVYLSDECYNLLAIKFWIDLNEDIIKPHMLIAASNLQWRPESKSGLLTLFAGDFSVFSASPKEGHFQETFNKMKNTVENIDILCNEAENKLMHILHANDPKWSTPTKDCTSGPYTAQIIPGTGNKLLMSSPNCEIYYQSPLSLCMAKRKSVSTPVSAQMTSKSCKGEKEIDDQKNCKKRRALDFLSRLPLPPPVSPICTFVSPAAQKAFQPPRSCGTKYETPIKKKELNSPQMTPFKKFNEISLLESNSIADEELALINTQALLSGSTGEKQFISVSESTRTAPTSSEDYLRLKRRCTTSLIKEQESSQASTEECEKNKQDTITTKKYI

B1: RJ-167-mer ssDNA (ssDNA)
DNA: CTGCTTTATCAAGATAATTTTTCGACTCATCAGAAATATCCGTTTCCTATATTTATTCCTATTATGTTTTATTCATTTACTTATTCTTTATGTTCATTTTTTATATCCTTTACTTTATTTTCTCTGTTTATTCATTTACTTATTTTGTATTATCCTTATCTTATTTA
B1: binds ([1]; label: 5'-32P (EMSA)).

B2: 3' tailed DNA (RJ-167-mer/RJ-PHIX-42-1) (mixed)
DNA 1: B1 DNA
DNA 2: CGGATATTTCTGATGAGTCGAAAAATTATCTTGATAAAGCAG
B2: binds [2].

B3: 5' tailed DNA (RJ-5'TAIL-167-mer/RJ-PHIX-42-1) (mixed)
DNA 1: ATTTATTCTATTCCCTTTATTTTCTCTGTTTATTCATTTACTTATTTTGTATTAATTTCCTATATTTTTTACTTGTATTTCTTATTCATTTACTTATTTTGTATTATCCTTATTTATATCCTTTCTGCTTTATCAAGATAATTTTTCGACTCATCAGAAATATCCG
DNA 2: B2 DNA 2
B3: binds ([1]; label: 5'-32P on 167-mer (EMSA), 42 bp duplex with 5' ssDNA overhang).
